Test results as given in PMC5398634.

Target: Erwinia amylovora AmyR (Erwinia amylovora strain CFBP1430)
Assay: crystal structure; native AmyR at 8 mg/ml, sitting-drop vapour diffusion, 0.1 M sodium cacodylate pH 6.9, 0.2 M magnesium chloride, 46% (v/v) PEG 200, 293 K; 1.95 Å, space group P 2(1)2(1)2; homodimer in the asymmetric unit

Question: How did the stoichiometry N turn out when “Erwinia amylovora AmyR (natural protein)” was run?
Answer: 2
